This is an account of results in the RNAGym collection of RNA variant scans (doi:10.1093/molbev/msab373).

The chains are these.
B1: Azoarcus group I ribozyme (parent)
chain: GUGCCUUGCGCCGGGAAACCACGCAAGGGAUGGUGUCAAAUUCGGCGAAACCUAAGCGCCCGCCCGGGCGUAUGGCAACGCCGAGCCAAGCUUCGGCGCCUGCGCCGAUGAAGGUGUAGAGACUAGACGGCACCCACCUAAGGCAAACGCUAUGGUGAAGGCAUAGUCCAGGGAGUGGCGAAAGUCACACAAACCGG

The variants in the series derive from B1. Nature of the series: reverse-splicing fitness (ratio to wild type); higher = more active; in vitro selection; Mg2+ level not given. An outline of the steps: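 An in vitro group I ribozyme library with randomized positions was T7-transcribed and gel-purified. In triplicate, 10 pmol RNA in EPPS pH 7.5 was reacted with 50 pmoles of a 30-nt RNA substrate for 1 h at 37 °C across several added MgCl2 levels (1–48 mM), then stopped with EDTA. Products were reverse transcribed from a substrate-complementary primer, PCR-amplified and sequenced (HiSeq 4000). Fitness is a variant's read proportion after selection over that before, normalised to wild type.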
On to C82G A111U A120C A145U C150G C169U U176G, for which the reverse-splicing fitness was found to be 0.00561.

For C82G A111U A120C A145U C150G C169U U176C, the reverse-splicing fitness is 0.0123.

As to C82G A111G C150U, the reverse-splicing fitness amounted to 0.199.

Regarding C82G A111G C150A, the reverse-splicing fitness was found to be 0.0393.

For C82G A111G C150G, the reverse-splicing fitness was found to be 0.0256.

Turning to C82G A111U A120C A145U C150U C169U U176G, the reverse-splicing fitness came to 0.00575.

C82G A111U A120C A145U C150U C169U U176A: the reverse-splicing fitness was 0.0134.

With C82G A111U A120C A145U C150U C169U U176C, the reverse-splicing fitness amounted to 0.0137.

Consider C82G A111G A145U C150U C169A U176A, for which the reverse-splicing fitness came out at 0.015.

In the case of C82G A111G A145U C150U C169A U176G, the reverse-splicing fitness stood at 0.00584.

On to C82G A111G A145U C150U C169A U176C, for which the reverse-splicing fitness is 0.0132.

Regarding C82G A111U A120C A145G C150G U176G, the reverse-splicing fitness came to 0.00789.

Take C82G A111U A120C A145G C150G U176A: the reverse-splicing fitness was 0.00813.

Consider C82G A111U A120C A145G C150G U176C, for which the reverse-splicing fitness was determined as 0.0118.

Turning to C82G A111G C150G U176C, the reverse-splicing fitness stood at 0.0225.

With C82G A111G C150G U176A, the reverse-splicing fitness is 0.0136.

With C82G A111G C150G U176G, the reverse-splicing fitness amounted to 0.00548.

In the case of C82G A111G A145U C150U C169U U176G, the reverse-splicing fitness came out at 0.00549.

In the case of C82G A111G A145U C150U C169U U176A, the reverse-splicing fitness is 0.0134.

For the variant C82G A111G A145U C150U C169U U176C, the reverse-splicing fitness was found to be 0.0137.

As to C82G A111G C150G C169U U176G, the reverse-splicing fitness amounted to 0.008.

Regarding C82G A111G C150G C169U U176A, the reverse-splicing fitness came to 0.00973.

On to C82G A111G C150G C169U U176C, for which the reverse-splicing fitness came to 0.0165.

As to C82G A111G C150G C169A U176A, the reverse-splicing fitness came out at 0.014.

Take C82G A111G C150G C169A U176C: the reverse-splicing fitness stood at 0.0166.

On to C82G A111G C150G C169A U176G, for which the reverse-splicing fitness turned out to be 0.00786.

C82G A111U A120C A145C C150U C169U: the reverse-splicing fitness amounted to 0.0113.

In the case of C82G A111U A120C A145C C150U C169G, the reverse-splicing fitness was 0.00854.

As for C82G A111U A120C A145C C150U C169A, the reverse-splicing fitness amounted to 0.00911.

As to C82G A111U A120C A145C C150U U176C, the reverse-splicing fitness turned out to be 0.0178.

In the case of C82G A111U A120C A145C C150U U176A, the reverse-splicing fitness is 0.0111.

For C82G A111U A120C A145C C150U U176G, the reverse-splicing fitness worked out at 0.00601.

In the case of C82G A111G C150A C169A, the reverse-splicing fitness came out at 0.0122.

Regarding C82G A111G C150A C169G, the reverse-splicing fitness was 0.0109.

C82G A111G C150A C169U: the reverse-splicing fitness was found to be 0.0115.

For C82G A111G A145G U176C, the reverse-splicing fitness turned out to be 0.27.

Take C82G A111G A145G U176G: the reverse-splicing fitness worked out at 0.0821.

With C82G A111G A145G U176A, the reverse-splicing fitness came out at 0.25.

Turning to C82G A111U A120C A145C C150G C169U, the reverse-splicing fitness is 0.00834.

Regarding C82G A111U A120C A145C C150G C169A, the reverse-splicing fitness was determined as 0.0104.

With C82G A111U A120C A145C C150G C169G, the reverse-splicing fitness came to 0.00735.

In the case of C82G A111U A120C A145G C150G, the reverse-splicing fitness is 0.0114.

As to C82G A111U A120C A145G C150A, the reverse-splicing fitness stood at 0.0162.

C82G A111U A120C A145G C150U: the reverse-splicing fitness was 0.0415.

For the variant C82G A111G C150A C169A U176A, the reverse-splicing fitness turned out to be 0.0211.

With C82G A111G C150A C169A U176C, the reverse-splicing fitness stood at 0.0224.

With C82G A111G C150A C169A U176G, the reverse-splicing fitness was found to be 0.00701.

As for C82G A111G A145G C169G U176A, the reverse-splicing fitness was 0.016.

With C82G A111G A145G C169G U176C, the reverse-splicing fitness was found to be 0.0231.

As for C82G A111G A145G C169G U176G, the reverse-splicing fitness turned out to be 0.00505.

With C82G A111U A120C A145C C150A C169U U176G, the reverse-splicing fitness stood at 0.00605.

C82G A111U A120C A145C C150A C169U U176A: the reverse-splicing fitness came to 0.0126.

In the case of C82G A111U A120C A145C C150A C169U U176C, the reverse-splicing fitness was 0.0105.

For C82G A111G A145U C150A C169G U176C, the reverse-splicing fitness is 0.0146.

Turning to C82G A111G A145U C150A C169G U176G, the reverse-splicing fitness amounted to 0.00554.

For C82G A111G A145U C150A C169G U176A, the reverse-splicing fitness turned out to be 0.0149.

As to C82G A111U A120C A145G C150A C169U U176C, the reverse-splicing fitness came out at 0.0159.

C82G A111U A120C A145G C150A C169U U176A: the reverse-splicing fitness stood at 0.0148.

With C82G A111U A120C A145G C150A C169U U176G, the reverse-splicing fitness is 0.00802.

On to C82G A111U A120C A145U C150G C169G U176A, for which the reverse-splicing fitness was found to be 0.00838.

Take C82G A111U A120C A145U C150G C169G U176G: the reverse-splicing fitness turned out to be 0.00592.

With C82G A111U A120C A145U C150G C169G U176C, the reverse-splicing fitness turned out to be 0.007.

On to C82G A111U A120C A145G C150A U176G, for which the reverse-splicing fitness was 0.0103.

Take C82G A111U A120C A145G C150A U176A: the reverse-splicing fitness came out at 0.011.

Regarding C82G A111U A120C A145G C150A U176C, the reverse-splicing fitness was found to be 0.0228.

As to C82G A111U A120C A145G C150U C169A U176A, the reverse-splicing fitness amounted to 0.0177.

On to C82G A111U A120C A145G C150U C169A U176G, for which the reverse-splicing fitness came out at 0.00812.

Consider C82G A111U A120C A145G C150U C169A U176C, for which the reverse-splicing fitness is 0.0177.

Consider C82G A111G A145G C150U C169U U176A, for which the reverse-splicing fitness was 0.0152.

With C82G A111G A145G C150U C169U U176C, the reverse-splicing fitness is 0.0151.

C82G A111G A145G C150U C169U U176G: the reverse-splicing fitness turned out to be 0.00678.

For the variant C82G A111G A145U C150A C169G, the reverse-splicing fitness was 0.00845.

For the variant C82G A111G A145U C150A C169U, the reverse-splicing fitness came to 0.00982.

On to C82G A111G A145U C150A C169A, for which the reverse-splicing fitness was found to be 0.00827.

In the case of C82G A111U A120C A145C C150A C169A U176C, the reverse-splicing fitness is 0.0121.

Take C82G A111U A120C A145C C150A C169A U176A: the reverse-splicing fitness amounted to 0.0162.

Take C82G A111U A120C A145C C150A C169A U176G: the reverse-splicing fitness worked out at 0.00706.

As for C82G A111G A145U C169G U176C, the reverse-splicing fitness turned out to be 0.0147.

Take C82G A111G A145U C169G U176A: the reverse-splicing fitness worked out at 0.0136.

For C82G A111G A145U C169G U176G, the reverse-splicing fitness came out at 0.00507.

Regarding C82G A111G A145G C150U, the reverse-splicing fitness is 0.316.

On to C82G A111G A145G C169A U176G, for which the reverse-splicing fitness worked out at 0.0057.

As to C82G A111G A145G C169A U176C, the reverse-splicing fitness was 0.0235.
